Test results reported in patent US20110251375A1.
Where two headings read alike, the source gives them in different places.

Assays:
[1] = biological target: recombinant human Erythropoietin (rhEPO) (human) (UniProt P01588); assay: ELISA, no periplasmic extract; anti-His-(4) and goat anti-mouse IgG-AP alone on coated rhEPO; negative control, no-antigen well 0.090
hen egg lysozyme (hen) [2] = biological target: hen egg lysozyme (hen) (UniProt P00698); assay: ELISA, no periplasmic extract; anti-His4 and anti-mouse HRP on HEL coated at 1.55 µg/ml
hen egg lysozyme (hen) [3] = biological target: hen egg lysozyme (hen) (UniProt P00698); assay: ELISA, no periplasmic extract; anti-His4 and anti-mouse HRP on coated HEL (100 µg/ml), 12 parallel readings
hen egg lysozyme (hen) [4] = biological target: hen egg lysozyme (hen) (UniProt P00698); assay: ELISA, no periplasmic extract; anti-His4 and anti-mouse HRP on HEL coated at 25 µg/ml
hen egg lysozyme (hen) [5] = biological target: hen egg lysozyme (hen) (UniProt P00698); assay: ELISA, no periplasmic extract; anti-His-(4) and goat anti-mouse IgG-HRP alone on coated HEL (20 µg/ml); negative control, no-antigen well 0.018
hen egg lysozyme (hen) [6] = biological target: hen egg lysozyme (hen) (UniProt P00698); assay: ELISA, no periplasmic extract; anti-His4 and anti-mouse HRP on coated HEL (100 µg/ml), 12 parallel readings; remark: listed apart in the source
hen egg lysozyme (hen) [7] = biological target: hen egg lysozyme (hen) (UniProt P00698); assay: ELISA, no periplasmic extract; anti-His4 and anti-mouse HRP on HEL coated at 0.39 µg/ml
hen egg lysozyme (hen) [8] = biological target: hen egg lysozyme (hen) (UniProt P00698); assay: ELISA, no periplasmic extract; anti-His4 and anti-mouse HRP on HEL coated at 12.5 µg/ml
hen egg lysozyme (hen) [9] = biological target: hen egg lysozyme (hen) (UniProt P00698); assay: ELISA, no periplasmic extract; anti-His4 and anti-mouse HRP on HEL coated at 200 µg/ml
hen egg lysozyme (hen) [10] = biological target: hen egg lysozyme (hen) (UniProt P00698); assay: ELISA, no periplasmic extract; anti-His4 and anti-mouse HRP on HEL coated at 6.25 µg/ml
hen egg lysozyme (hen) [11] = biological target: hen egg lysozyme (hen) (UniProt P00698); assay: ELISA, no periplasmic extract; anti-His4 and anti-mouse HRP on HEL coated at 3.125 µg/ml
hen egg lysozyme (hen) [12] = biological target: hen egg lysozyme (hen) (UniProt P00698); assay: ELISA, no periplasmic extract; anti-His4 and anti-mouse HRP on HEL coated at 100 µg/ml
hen egg lysozyme (hen) [13] = biological target: hen egg lysozyme (hen) (UniProt P00698); assay: ELISA, no periplasmic extract; anti-His4 and anti-mouse HRP on HEL coated at 50 µg/ml

UniProt P00698, sequence (P00698 19-147 limits assumed): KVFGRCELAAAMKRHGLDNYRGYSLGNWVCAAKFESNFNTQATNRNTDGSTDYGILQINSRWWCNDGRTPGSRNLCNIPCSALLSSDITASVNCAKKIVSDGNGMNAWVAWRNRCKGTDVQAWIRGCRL
UniProt P01588, sequence (P01588 28-192 limits assumed): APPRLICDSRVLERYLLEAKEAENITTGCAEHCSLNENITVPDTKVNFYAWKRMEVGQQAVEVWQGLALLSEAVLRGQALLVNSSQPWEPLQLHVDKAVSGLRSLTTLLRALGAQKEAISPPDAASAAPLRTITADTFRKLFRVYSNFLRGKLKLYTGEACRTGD

Substance: anti-His4 antibody (Qiagen)
- absorbance, no periplasmic extract (control) [1]: 0.095 A 405/620 nm
- ELISA absorbance (no periplasmic extract) (hen egg lysozyme (hen) [2]): 0.013 A 492/620
- A 492/620 background (antigen alone) (hen egg lysozyme (hen) [3]): 0.133 A 492/620
- ELISA absorbance (no periplasmic extract) (hen egg lysozyme (hen) [4]): 0.072 A 492/620
- absorbance, no periplasmic extract (control) (hen egg lysozyme (hen) [5]): 0.11 A 492/620 nm
- A 492/620 background (antigen alone) (hen egg lysozyme (hen) [6]): 0.176 A 492/620
- ELISA absorbance (no periplasmic extract) (hen egg lysozyme (hen) [7]): 0.007 A 492/620
- ELISA absorbance (no periplasmic extract) (hen egg lysozyme (hen) [8]): 0.038 A 492/620
- ELISA absorbance (no periplasmic extract) (hen egg lysozyme (hen) [9]): 0.449 A 492/620
- ELISA absorbance (no periplasmic extract) (hen egg lysozyme (hen) [10]): 0.023 A 492/620
- ELISA absorbance (no periplasmic extract) (hen egg lysozyme (hen) [11]): 0.017 A 492/620
- ELISA absorbance (no periplasmic extract) (hen egg lysozyme (hen) [12]): 0.36 A 492/620
- ELISA absorbance (no periplasmic extract) (hen egg lysozyme (hen) [13]): 0.165 A 492/620
